Publication PMC6652776

Key:
[1] = molecular target: PE-PilA fusion protein (version used in solution and ELISA experiments) (nontypeable Haemophilus influenzae strain 772 | nontypeable Haemophilus influenzae strain 86-028NP); assay: AUC; sedimentation velocity, 25,000 rpm, AN-60Ti rotor, 15°C, absorbance at 280 nm, c(S) model in Sedfit
[2] = molecular target: protein E (PE), recombinant, isolated (nontypeable Haemophilus influenzae strain 772); assay: as above

“PE-PilA fusion protein (version used in solution and ELISA experiments)” showed a stoichiometry N [1] of 2.
“protein E (PE), recombinant, isolated (domain or fragment)” gave a stoichiometry N [2] of 2.
